# Reference: ChEMBL document CHEMBL3769311, “The natural flavone fukugetin as a mixed-type inhibitor for human tissue kallikreins” (Bioorg Med Chem Lett, 2016)
# Calls of active or inactive are those of the source. The rule behind the calls is not given here.
# Columns and labels:
# [1] = test system: O=C1CC(c2ccc(O)c(O)c2)Oc2c1c(O)cc(O)c2[C@@H]1C(=O)c2c(O)cc(O)cc2O[C@H]1c1ccc(O)cc1; conditions: Homo sapiens; 10 uM
# Description: Mixed-type inhibition of human tissue kallikrein-1 expressed in baculovirus infected insect cells using Abz-KLRSSQ-EDDnp as substrate assessed as substrate Km at 10 uM by Lineweaver-Burk plot analysis
# [2] = test system: O=C1CC(c2ccc(O)c(O)c2)Oc2c1c(O)cc(O)c2[C@@H]1C(=O)c2c(O)cc(O)cc2O[C@H]1c1ccc(O)cc1; conditions: Homo sapiens; 4 uM
# Description: Mixed-type inhibition of human tissue kallikrein-1 expressed in baculovirus infected insect cells using Abz-KLRSSQ-EDDnp as substrate assessed as substrate Km at 4 uM by Lineweaver-Burk plot analysis
# [3] = test system: O=C1CC(c2ccc(O)c(O)c2)Oc2c1c(O)cc(O)c2[C@@H]1C(=O)c2c(O)cc(O)cc2O[C@H]1c1ccc(O)cc1; conditions: Homo sapiens; 4 uM; remark: listed apart in the source
# Description: Mixed-type inhibition of human tissue kallikrein-1 expressed in baculovirus infected insect cells using Abz-KLRSSQ-EDDnp as substrate assessed as enzyme Vmax at 4 uM by Lineweaver-Burk plot analysis
# [4] = test system: O=C1CC(c2ccc(O)c(O)c2)Oc2c1c(O)cc(O)c2[C@@H]1C(=O)c2c(O)cc(O)cc2O[C@H]1c1ccc(O)cc1; conditions: Homo sapiens; 8 uM
# Description: Mixed-type inhibition of human tissue kallikrein-1 expressed in baculovirus infected insect cells using Abz-KLRSSQ-EDDnp as substrate assessed as substrate Km at 8 uM by Lineweaver-Burk plot analysis
# [5] = test system: O=C1CC(c2ccc(O)c(O)c2)Oc2c1c(O)cc(O)c2[C@@H]1C(=O)c2c(O)cc(O)cc2O[C@H]1c1ccc(O)cc1; conditions: Homo sapiens; 2 uM
# Description: Mixed-type inhibition of human tissue kallikrein-1 expressed in baculovirus infected insect cells using Abz-KLRSSQ-EDDnp as substrate assessed as substrate Km at 2 uM by Lineweaver-Burk plot analysis
# [6] = test system: O=C1CC(c2ccc(O)c(O)c2)Oc2c1c(O)cc(O)c2[C@@H]1C(=O)c2c(O)cc(O)cc2O[C@H]1c1ccc(O)cc1; conditions: Homo sapiens; 10 uM; remark: listed apart in the source
# Description: Mixed-type inhibition of human tissue kallikrein-1 expressed in baculovirus infected insect cells using Abz-KLRSSQ-EDDnp as substrate assessed as enzyme Vmax at 10 uM by Lineweaver-Burk plot analysis
# [7] = test system: O=C1CC(c2ccc(O)c(O)c2)Oc2c1c(O)cc(O)c2[C@@H]1C(=O)c2c(O)cc(O)cc2O[C@H]1c1ccc(O)cc1; conditions: Homo sapiens; 8 uM; remark: listed apart in the source
# Description: Mixed-type inhibition of human tissue kallikrein-1 expressed in baculovirus infected insect cells using Abz-KLRSSQ-EDDnp as substrate assessed as enzyme Vmax at 8 uM by Lineweaver-Burk plot analysis
# [8] = test system: O=C1CC(c2ccc(O)c(O)c2)Oc2c1c(O)cc(O)c2[C@@H]1C(=O)c2c(O)cc(O)cc2O[C@H]1c1ccc(O)cc1; conditions: Homo sapiens; 2 uM; remark: listed apart in the source
# Description: Mixed-type inhibition of human tissue kallikrein-1 expressed in baculovirus infected insect cells using Abz-KLRSSQ-EDDnp as substrate assessed as enzyme Vmax at 2 uM by Lineweaver-Burk plot analysis
# [9] = target: Kallikrein-1 (Homo sapiens) (UniProt P06870); conditions: 2 to 10 uM
compound,measurement,setting,value
"Kallikrein-1 (Homo sapiens), P06870",Km,[1],1.12 µM
same,Km,[2],0.85 µM
same,Vmax,[3],285 µM/s
same,Km,[4],0.93 µM
same,Km,[5],0.8 µM
same,Vmax,[6],160 µM/s
same,Vmax,[7],201 µM/s
same,Vmax,[8],387 µM/s
O=C1CC(c2ccc(O)c(O)c2)Oc2c1c(O)cc(O)c2[C@@H]1C(=O)c2c(O)cc(O)cc2O[C@H]1c1ccc(O)cc1 (some centres undefined),inhibition,[9],Active
